Laboratory results taken from patent US20240269180A1.

Experiments:
[1] = molecular target: PD-1 on tumor infiltrating lymphocytes (human) (UniProt Q15116); assay: flow cytometry of tumor digest OV8074 stained with anti-PD-1 clone EH12.2H7; percent of CD3+ cells stained PD-1+
[2] = molecular target: PD-1 on tumor infiltrating lymphocytes (human) (UniProt Q15116); assay: flow cytometry of tumor digest M1156 stained with anti-PD-1 clone EH12.2H7; percent of CD3+ cells stained PD-1+
[3] = molecular target: PD-1 on tumor infiltrating lymphocytes (human) (UniProt Q15116); assay: flow cytometry of tumor digest H3046 stained with anti-PD-1 clone EH12.2H7; percent of CD3+ cells stained PD-1+

UniProt Q15116, sequence (Q15116 25-288): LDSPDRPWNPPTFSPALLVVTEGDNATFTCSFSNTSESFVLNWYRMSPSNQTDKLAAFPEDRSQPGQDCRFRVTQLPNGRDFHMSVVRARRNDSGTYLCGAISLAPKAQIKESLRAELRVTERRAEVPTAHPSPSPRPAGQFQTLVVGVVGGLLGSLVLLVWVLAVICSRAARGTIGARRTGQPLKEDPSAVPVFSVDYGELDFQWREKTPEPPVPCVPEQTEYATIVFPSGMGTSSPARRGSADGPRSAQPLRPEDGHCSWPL

B1: anti-PD-1 antibody clone EH12.2H7 (antibody, from another filing, V domains shown)
VH: QVQLQQSGAELAKPGASVQMSCKASGYSFTSSWIHWVKQRPGQGLEWIGYIYPSTGFTEYNQKFKDKATLTADKSSSTAYMQLSSLTSEDSAVYYCARWRDSSGYHAMDYWGQGTSVTVSS
VL: DIVLTQSPASLTVSLGQRATISCRASQSVSTSGYSYMHWYQQKPGQPPKLLIKFGSNLESGIPARFSGSGSGTDFTLNIHPVEEEDTATYYCQHSWEIPYTFGGGTKLEIK
B1 gave a Pre-sort % PD-1+ (of CD3+) [1] of 70%, a Pre-sort % PD-1+ (of CD3+) [2] of 93% and a Pre-sort % PD-1+ (of CD3+) [3] of 13%.
